Laboratory results reported in patent publication US20250171542A1 (ADEPT THERAPEUTICS, published 2025).
Changes are numbered by the printed parent chain.

T1: CD80 (Sino Biological, Cat #10698-H08H) (UniProt P33681 35-242)
T1 sequence (looked up): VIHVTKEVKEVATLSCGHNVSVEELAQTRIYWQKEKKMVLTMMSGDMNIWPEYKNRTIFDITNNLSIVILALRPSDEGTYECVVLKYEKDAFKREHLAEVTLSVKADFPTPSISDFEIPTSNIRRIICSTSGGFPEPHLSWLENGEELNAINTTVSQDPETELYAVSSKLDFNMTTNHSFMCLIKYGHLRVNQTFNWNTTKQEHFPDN

T2: BH-H2 (Sino Biological, Cat #11559-H08H) (UniProt O75144 19-258)
T2 sequence (looked up): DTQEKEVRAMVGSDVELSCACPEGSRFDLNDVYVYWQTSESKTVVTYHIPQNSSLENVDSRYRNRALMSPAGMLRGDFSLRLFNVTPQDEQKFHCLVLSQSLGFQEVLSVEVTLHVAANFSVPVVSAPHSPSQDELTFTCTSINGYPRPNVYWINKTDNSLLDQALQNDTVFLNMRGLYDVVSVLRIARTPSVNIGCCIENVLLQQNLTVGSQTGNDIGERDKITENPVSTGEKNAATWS

T3: CD86 (Sino Biological, Cat #10699-H08H) (UniProt P42081 24-245)
T3 sequence (looked up): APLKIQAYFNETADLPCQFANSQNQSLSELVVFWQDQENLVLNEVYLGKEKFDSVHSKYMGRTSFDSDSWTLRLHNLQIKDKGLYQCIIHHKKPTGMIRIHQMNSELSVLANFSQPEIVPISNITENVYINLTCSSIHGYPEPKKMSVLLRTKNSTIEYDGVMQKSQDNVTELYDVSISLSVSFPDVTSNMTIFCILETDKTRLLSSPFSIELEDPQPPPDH

T4: canine PD-L1 (Acro Biosystems, Cat #PDL-C52H4) (canine, UniProt E2RKZ5 19-236)
T4 construct: not shown: The vendor's tag, probably a polyhistidine tag
T4 sequence: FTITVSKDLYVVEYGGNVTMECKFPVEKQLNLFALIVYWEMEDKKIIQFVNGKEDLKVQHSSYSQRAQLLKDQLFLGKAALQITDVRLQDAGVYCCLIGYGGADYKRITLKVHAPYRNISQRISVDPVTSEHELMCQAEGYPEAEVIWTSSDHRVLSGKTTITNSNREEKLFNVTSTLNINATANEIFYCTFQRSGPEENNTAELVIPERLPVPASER

B1: 33E8 (antibody, human IgG1, V domains shown)
VH: QSLEESGGDLVKPGASLTLTCTASGFYFSSGYDMSWVRQAPGKGLEWIASIFTTSGSTWYANWAKGRFTISKTSSTTVTLQMTSLTDADTATYFCTKDGVGSFYMNLWGPGTLVTVSS
VL: LVMTQTPASVEVAVGGTVTIKCQASQTIGSNLAWYQQRPGQPPKLLIYKAFTLASGVSSRFKGSGSGTQFTLTISGVECADAATYYCQQGATRINIDNAFGGGTEVVVK
B2: 27A2 (antibody, human IgG1, V domains shown)
VH: QEQLEESGGGLVQPEGSLTLTCTASGFSFSSNHYMSWVRQAPGKGLEWIGSIGVGSGITDYASWAKGRFTISKASSTTLTLQMTTLTAADTAIYFCARWTSGGGGFGLWGPGTLVTVSS
VL: QVLTQTSSPVSAAVGGTVTINCQSSQTIYSDYLFWYQQTPGQPPKLLIYQTSTLASGVPSRFKGSGSGTEFTLTISEIQCDDAATYYCQGYYSGYIWTFGGGTEVVVR
B3: 74A9 (antibody, human IgG1, V domains shown)
VH: QSVEESGGRLVTPGTPLTLTCAVSGFSLSTYALGWVRQAPGKGLEWIGSISIGGATYYASWAKGRFTISKTSTTVDLKIASPTTEDTATYFCARNVDSIYLDAFHTWGPGTLVTVSL
VL: DIVMTQTPASVEAAVGGTVTIKCQASQNIYNNLAWYQQKPGQPPKLLIYRASTLASGVPSRFKGSGSGTEYTLTISDLECDDAATYYCQTYYLTTTTNAFGGGTEVVVK
B4: 56E5 (antibody, human IgG1, V domains shown)
VH: QEQLEESGGGLVQPEGSLTLTCTASGFSFSGDYYMSWVRQAPGKGLEWIASIYTGSLNTYYATWAKGRFTISLTSSTTVTLQMTSLTAADTATYFCARRHKNADYGHFDLWGPGTLVTVSS
VL: YDMTQTPGSVEVAVGGTVTIKCQASQSINDRLAWYQQTPGQPPKLLIYGASTLASGVPSRFKGSGSGTEFTLTISDLECADAATYYCQQGWTVSSLDNAFGGGTEVVAK
B5: 55H3/76D6 (antibody, human IgG1, V domains shown)
VH: B4 VH with A24V, I49V, T59S, H100N
VL: B4 VL with G8A, Q26E, T38K, G49A, K62R, E69D, K109M
B6: 57B10 (antibody, human IgG1, V domains shown)
VH: B4 VH with G31D, H100N, Y105W
VL: B4 VL with G8A, N29S, D30T, R31A, T38K, G49A, K62R, E69D, K109M
B7: 62E6 (antibody, human IgG1, V domains shown)
VH: B4 VH with G10D, Q13K, T59I, H100N
VL: B4 VL with G8A, T38K, G40R, A80V
B8: 33H7 (antibody, human IgG1, V domains shown)
VH: QEQLVESGGGLVQPEGSLTVTCTASGFDLSRYFYMSWVRQAPGKGLEWIASISTGSDITDYASWAKGRFTISKTSSTTVTLQMTTLTAADTAIYFCARWTSGGGGFGLWGPGTLVTVSS
VL: QVLTQTASPVSAAVGGTVTLNCQSSQSIYNNYLSWYQQRAGQPPKLLIYSTATLASGVPSRFKGSGSGTQFTLTISEIQCEDAATYYCQGYYSGYIWTFGGGTEVVVK
B9: 32E2 (antibody, human IgG1, V domains shown)
VH: QEQLEESGGDLVKPEGSLTLTCTASGFSFSSSYYMSWVRQAPGMGLEWIASISGGVTDNAYYASWAKGRFTVSKTSSTTVTLQLTSLTAADTATYFCARDSSSGYFFLLWGPGTLVTVSS
VL: LVMTQTPSSVSAAVGGTVTINCQASQNIYSNLAWYQQKPGQRPKLLIFGASNLRSGVPSRFKGSGSGTEYTLTISDLECADAATYYCQEGYSIGNVDNPFGGGTEVVVK
B10: 74F4 (antibody, human IgG1, V domains shown)
VH: B4 VH with H100N
VL: B4 VL with G8A, T38S, E69D
B11: 57F11 (antibody, human IgG1, V domains shown)
VH: B4 VH with Q3H, S17A, L73I, T74A, M83V, H100T, A103G, H107Y
VL: B4 VL with G8A, T38K, G49A, D97E
B12: 73C8 (antibody, human IgG1, V domains shown)
VH: B4 VH with A24V, I49V, H100N
VL: B4 VL with G8A, T38K, G49A, K62R, E69D, K109M
B13: 69D10 (antibody, human IgG1, V domains shown)
VH: B4 VH with Y33W, T54S, I71V, H100N
VL: B4 VL with G8A, N29G, D30N, R31A, T38K, G49A, A50T, A80G

target: T5, human PD-L1 expressed on cell surface (human, UniProt Q9NZQ7 19-290); experiment: cell-based or functional assay
T5 sequence (Q9NZQ7 19-290 limits assumed): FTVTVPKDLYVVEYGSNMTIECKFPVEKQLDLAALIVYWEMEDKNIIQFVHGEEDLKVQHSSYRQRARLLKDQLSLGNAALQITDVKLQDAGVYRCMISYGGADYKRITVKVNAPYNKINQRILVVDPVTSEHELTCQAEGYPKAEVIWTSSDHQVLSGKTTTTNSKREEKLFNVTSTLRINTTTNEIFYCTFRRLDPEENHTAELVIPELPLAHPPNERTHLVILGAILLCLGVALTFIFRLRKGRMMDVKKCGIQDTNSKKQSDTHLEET

| Binder | IC50 (nM), Promega PD-1/PD-L1 blockade reporter assay, another assay [nM] |
| --- | --- |
| B1 | 0.38 |
| B2 | 0.35 |
| B3 | 0.46 |

target: T5, human PD-L1 expressed on cell surface; experiment: cell-based or functional assay; remark: another data set of the same source

| Binder | IC50 (nM), Promega PD-1/PD-L1 blockade reporter assay [nM] |
| --- | --- |
| B2 | 0.23 |
| B4 | 0.41 |
| B5 | 0.97 |
| B6 | 0.47 |
| B7 | 0.41 |
| B3 | 0.29 |
| B8 | 0.52 |

target: T6, human PD-L1-mFc fusion protein (Sino Biological, Cat #10084-H05H) (human, UniProt Q9NZQ7 19-239); experiment: competition ELISA, coated human PD-L1-mFc, competitor human PD-1-His-hFc-Biotin
T6 construct: Bought protein; also called human PD-L1 mouse Fc fusion protein; not shown: mouse Fc
T6 sequence (Q9NZQ7 19-239 limits assumed): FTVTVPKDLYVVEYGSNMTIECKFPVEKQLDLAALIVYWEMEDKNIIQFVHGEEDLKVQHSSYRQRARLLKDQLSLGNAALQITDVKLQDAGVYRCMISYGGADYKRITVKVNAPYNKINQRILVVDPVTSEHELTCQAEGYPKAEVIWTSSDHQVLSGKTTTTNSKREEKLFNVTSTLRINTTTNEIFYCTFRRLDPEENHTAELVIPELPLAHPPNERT
Procedure: Briefly, microplates were precoated with […] of human PD-L1-mFc fusion protein (Sino Biological, Cat #10084-H05H) diluted in 1×PBS (GIBCO) and incubated overnight at 4° C.; Plates were washed four times with 300 μl/well washing buffer (1×PBST, diluted from 20×PBST (Thermo Scientific) with distilled water)) and then blocked with 300 μl/well of blocking buffer (1×PBST/3% BSA) for 2 hours at RT on shaker (100 rpm). […] Plates were washed and added with 100 μl/well TMB substrate for color development at room temperature in dark for up to 10 minutes. After addition of 50 μl/well of stop solution (1N H₂SO₄), plates were read at 450 nm on a plate reader (SpectraMax M5).

| Binder | IC50 [pM] |
| --- | --- |
| B9 | 7500 |
| B1 | 3100 |
| B2 | 1900 |
| B3 | 2300 |
| B8 | 2100 |

target: T1, CD80 (Sino Biological, Cat #10698-H08H); experiment: ELISA

| Binder | binding result |
| --- | --- |
| B9 | no binding |
| B1 | no binding |
| B2 | no binding |
| B10 | no binding |
| B11 | no binding |
| B4 | no binding |
| B12 | no binding |
| B5 | no binding |
| B6 | no binding |
| B7 | no binding |
| B13 | no binding |
| B3 | no binding |
| B8 | no binding |

target: T2, BH-H2 (Sino Biological, Cat #11559-H08H); experiment: ELISA

| Binder | binding result |
| --- | --- |
| B9 | no binding |
| B1 | no binding |
| B2 | no binding |
| B10 | no binding |
| B11 | no binding |
| B4 | no binding |
| B12 | no binding |
| B5 | no binding |
| B6 | no binding |
| B7 | no binding |
| B13 | no binding |
| B3 | no binding |
| B8 | no binding |

target: T3, CD86 (Sino Biological, Cat #10699-H08H); experiment: ELISA

| Binder | binding result |
| --- | --- |
| B9 | no binding |
| B1 | no binding |
| B2 | no binding |
| B10 | no binding |
| B11 | no binding |
| B4 | no binding |
| B12 | no binding |
| B5 | no binding |
| B6 | no binding |
| B7 | no binding |
| B13 | no binding |
| B3 | no binding |
| B8 | no binding |

target: T4, canine PD-L1 (Acro Biosystems, Cat …); experiment: ELISA

| Binder | binding result |
| --- | --- |
| B9 | no binding |
| B1 | no binding |
| B2 | no binding |
| B10 | no binding |
| B11 | no binding |
| B4 | no binding |
| B12 | no binding |
| B5 | no binding |
| B6 | no binding |
| B7 | no binding |
| B13 | no binding |
| B3 | no binding |
| B8 | no binding |

target: T7, rat PD-L1 (Sino Biological, Cat #80450-R08H) (rat, UniProt D4AE25 19-239); experiment: ELISA
T7 construct: not shown: The vendor's polyhistidine tag
T7 sequence (D4AE25 entry or part of it R08H R08H limits assumed): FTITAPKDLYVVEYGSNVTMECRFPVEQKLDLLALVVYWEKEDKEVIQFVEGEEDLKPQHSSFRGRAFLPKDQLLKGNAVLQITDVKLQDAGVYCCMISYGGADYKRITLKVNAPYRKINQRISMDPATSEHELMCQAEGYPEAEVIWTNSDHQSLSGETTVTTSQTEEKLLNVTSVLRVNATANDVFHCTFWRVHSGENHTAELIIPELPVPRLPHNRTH

| Binder | binding result |
| --- | --- |
| B9 | no binding |
| B1 | no binding |
| B2 | no binding |
| B10 | no binding |
| B11 | no binding |
| B4 | no binding |
| B12 | no binding |
| B5 | no binding |
| B6 | no binding |
| B7 | no binding |
| B13 | no binding |
| B3 | no binding |
| B8 | no binding |
